US20240228579A1 (Innovent, published 2024)

T1: Claudin18.2 (cp0007, Genscript) (UniProt P56856-2 1-261, limits assumed)
T1 construct: Bought antigen used in BLI; also called Claudin18.2 antigen; the antigen
T1 sequence (looked up): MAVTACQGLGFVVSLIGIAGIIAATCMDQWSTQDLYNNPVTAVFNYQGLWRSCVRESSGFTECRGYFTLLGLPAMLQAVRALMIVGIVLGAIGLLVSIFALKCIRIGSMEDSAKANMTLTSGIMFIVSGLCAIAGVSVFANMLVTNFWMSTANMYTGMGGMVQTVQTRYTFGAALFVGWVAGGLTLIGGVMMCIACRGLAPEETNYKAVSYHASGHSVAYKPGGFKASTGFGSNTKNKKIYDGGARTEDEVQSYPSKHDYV

T2: Human CD32A/FCGR2A protein (167his) (human, UniProt P12318 34-218, limits assumed)
T2 construct: Bought, his-tagged; also called CD32A (H167); CD32A H167; not shown: his tag
T2 sequence (looked up): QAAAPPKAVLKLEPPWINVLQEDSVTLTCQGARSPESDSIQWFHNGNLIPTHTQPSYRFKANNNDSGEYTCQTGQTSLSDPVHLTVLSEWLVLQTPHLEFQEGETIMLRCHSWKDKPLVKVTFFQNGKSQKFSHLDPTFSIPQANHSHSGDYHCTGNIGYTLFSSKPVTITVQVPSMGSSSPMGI

T3: Human CD32B/FCGR2B protein (human, UniProt P31994 43-217, limits assumed)
T3 construct: Bought, his-tagged; also called FcγRIIb; not shown: his tag
T3 sequence (looked up): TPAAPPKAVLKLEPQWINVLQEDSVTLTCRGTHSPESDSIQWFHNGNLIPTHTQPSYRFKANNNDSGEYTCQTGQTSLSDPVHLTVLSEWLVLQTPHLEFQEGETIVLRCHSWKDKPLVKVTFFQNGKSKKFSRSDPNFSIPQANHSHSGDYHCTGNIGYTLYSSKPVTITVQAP

T4: Human CD32A/FCGR2A protein (167Arg) (human, UniProt P12318 34-218, limits assumed)
T4 construct: Bought, his-tagged; also called CD32A (R167); CD32A R167; not shown: his tag
T4 sequence (looked up): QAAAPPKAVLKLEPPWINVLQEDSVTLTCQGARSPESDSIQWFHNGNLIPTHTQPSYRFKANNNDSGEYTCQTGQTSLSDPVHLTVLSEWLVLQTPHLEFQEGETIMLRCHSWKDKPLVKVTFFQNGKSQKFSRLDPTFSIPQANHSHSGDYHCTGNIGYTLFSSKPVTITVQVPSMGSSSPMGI


Key:
[1] = molecular target: T5, Human FcRn/FCGRT & B2M heterodimeric protein (human, UniProt P55899 24-297; P61769 21-119); experiment: SPR (Biacore T200), FcRn captured, antibody in flow, pH 6.0; pH 6.0
T5 construct: Bought heterodimer with His and Strep II tags
Source text: (§1) The specific procedures were as follows: Each of FcγR and FcRn proteins (for information of each Fc receptor, see Table 2 below) containing a histidine tag was captured to the chip surface to which anti-histidine antibodies were coupled, and the binding and dissociation between the proteins on the chip surface and antibodies in the mobile phase were detected to obtain affinity and kinetic constants.
(§2) Affinity assay: Each cycle included capture of the receptor, binding of a certain concentration of the antibody carrying the Fc region mutation of the present application, and regeneration of the chip. […] In each cycle, the antibody mutant solution flowed over the chip surface at a flow rate of 30 μL/min, with the binding time of 60 s and the dissociation time of 60 s. […] The obtained data were analyzed using Biacore T200 analysis software (version number 3.1) and using an analysis 1:1 binding or homeostasis analysis model to obtain the corresponding results.

human C1q [2] = molecular target: T6, human C1q (human, UniProt P02745 23-245; P02746 28-253; P02747 29-245); experiment: BLI (Octet), biotinylated antibody on SA sensor, C1q 40 nM
T6 construct: Bought C1q (Complement Technology); also called C1q antigen
Procedure: (§3) The antibody was diluted to approximately 100 nM, and C1q (Δ099, Complement Technology) was diluted to 40 nM.
(§4) Detection was conducted using Fortebio Octet Red96e, and the sensors were arranged according to the positions of the samples. […] After the experiment was completed, KD values were analyzed using ForteBio Octet analysis software, the coordinate axis data were derived, and Graphpad Prism 8 software was used for plotting.

[3] = molecular target: T1, Claudin18.2 (cp0007, Genscript); experiment: BLI (Octet), antibody on AHC sensor, Claudin18.2 100 nM
Procedure: The antibody and Claudin18.2 (cp0007, Genscript) were diluted to 100 nM, respectively.
Detection was conducted using Fortebio Octet Red96e, and the sensors were arranged according to the positions of the samples. […] After the experiment was completed, KD values were analyzed using ForteBio Octet analysis software.

human C1q [4] = molecular target: T6, human C1q; experiment: BLI (Octet), biotinylated antibody on SA sensor
Procedure: as §3, §4

[5] = molecular target: T7, Human FcγRIIIA/CD16A (V176) protein (human, UniProt P08637 17-208); experiment: SPR (Biacore T200);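 further: His-tagged Fc receptors captured on an anti-His antibody chip, Fc-variant antibodies flowed as analyte, 60 s association and 60 s dissociation, fitted by 1:1 or steady-state model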
T7 construct: Bought, his-tagged; not shown: his tag

[6] = molecular target: T8, Human FcγRIIIB/CD16B (NA1) (human, UniProt O75015 17-200, limits assumed); experiment: SPR (Biacore T200);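 further: His-tagged Fc receptors captured on an anti-His antibody chip, Fc-variant antibodies flowed as analyte, 60 s association and 60 s dissociation, fitted by 1:1 or steady-state model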
T8 construct: Bought, his-tagged; not shown: his tag

[7] = molecular target: T2, Human CD32A/FCGR2A protein (167his); experiment: SPR (Biacore T200);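 further: His-tagged Fc receptors captured on an anti-His antibody chip, Fc-variant antibodies flowed as analyte, 60 s association and 60 s dissociation, fitted by 1:1 or steady-state model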
Source text: as §1, §2

[8] = molecular target: T9, Human FcγRIIIB/CD16B (NA2) (human, UniProt O75015 17-200, limits assumed); experiment: SPR (Biacore T200);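 further: His-tagged Fc receptors captured on an anti-His antibody chip, Fc-variant antibodies flowed as analyte, 60 s association and 60 s dissociation, fitted by 1:1 or steady-state model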
T9 construct: Bought, his-tagged; not shown: his tag

[9] = molecular target: T3, Human CD32B/FCGR2B protein; experiment: SPR (Biacore T200)
Source text: as §1, §2

[10] = molecular target: T10, Human CD64/FCGR1A protein (human, UniProt P12314 16-288, limits assumed); experiment: SPR (Biacore T200)
T10 construct: Bought, his-tagged; also called FcγRI; not shown: his tag

[11] = molecular target: T11, Human FcγRIIIA/CD16A (F176) protein (human, UniProt P08637 17-208); experiment: SPR (Biacore T200)
T11 construct: Bought, his-tagged; not shown: his tag

[12] = molecular target: T4, Human CD32A/FCGR2A protein (167Arg); experiment: SPR (Biacore T200)
Source text: as §1, §2

T6 sequence (P02745 23-245 limits assumed, chain 1 of 3): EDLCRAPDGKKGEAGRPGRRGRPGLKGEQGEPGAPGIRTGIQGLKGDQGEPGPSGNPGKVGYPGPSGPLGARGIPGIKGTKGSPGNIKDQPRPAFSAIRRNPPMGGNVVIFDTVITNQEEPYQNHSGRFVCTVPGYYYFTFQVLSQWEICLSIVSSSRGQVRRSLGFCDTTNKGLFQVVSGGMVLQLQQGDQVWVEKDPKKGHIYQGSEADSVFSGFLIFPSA
T6 sequence (P02746 28-253 limits assumed, chain 2 of 3): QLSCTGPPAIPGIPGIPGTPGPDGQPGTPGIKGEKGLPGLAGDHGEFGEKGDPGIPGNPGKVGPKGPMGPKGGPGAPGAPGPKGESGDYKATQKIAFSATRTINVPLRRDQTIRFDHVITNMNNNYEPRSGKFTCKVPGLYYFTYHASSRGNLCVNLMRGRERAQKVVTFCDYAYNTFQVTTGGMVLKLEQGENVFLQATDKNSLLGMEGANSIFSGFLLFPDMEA
T6 sequence (P02747 29-245 limits assumed, chain 3 of 3): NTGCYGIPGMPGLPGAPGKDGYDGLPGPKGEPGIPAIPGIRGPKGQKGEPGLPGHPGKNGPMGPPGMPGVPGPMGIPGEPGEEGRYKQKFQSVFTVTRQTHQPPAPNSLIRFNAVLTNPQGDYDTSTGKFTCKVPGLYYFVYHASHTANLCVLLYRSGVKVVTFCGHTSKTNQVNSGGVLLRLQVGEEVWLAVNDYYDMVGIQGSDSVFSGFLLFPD
T11 sequence (P08637 17-208 limits assumed): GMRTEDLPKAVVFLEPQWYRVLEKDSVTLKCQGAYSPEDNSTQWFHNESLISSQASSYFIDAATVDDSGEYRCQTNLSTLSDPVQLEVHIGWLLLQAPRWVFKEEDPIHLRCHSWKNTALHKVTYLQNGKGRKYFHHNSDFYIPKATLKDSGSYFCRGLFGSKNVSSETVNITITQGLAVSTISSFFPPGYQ
T8 sequence (O75015 other isoform, or with tags, fused parts or gaps limits assumed): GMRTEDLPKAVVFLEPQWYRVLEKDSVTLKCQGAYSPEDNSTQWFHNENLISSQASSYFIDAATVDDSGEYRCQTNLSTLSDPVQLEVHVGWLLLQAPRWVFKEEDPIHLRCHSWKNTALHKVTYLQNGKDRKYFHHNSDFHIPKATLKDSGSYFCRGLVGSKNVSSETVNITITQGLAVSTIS
T7 sequence (P08637 17-208 F176V limits assumed): as the sequence (P08637 17-208 limits assumed) above, with F160V counted along it
T9 sequence (O75015 17-200 N65S limits assumed): as the sequence (O75015 other isoform, or with tags, fused parts or gaps limits assumed) above, with R20S, N49S, D66N, V90I counted along it
T10 sequence (P12314 16-288 limits assumed): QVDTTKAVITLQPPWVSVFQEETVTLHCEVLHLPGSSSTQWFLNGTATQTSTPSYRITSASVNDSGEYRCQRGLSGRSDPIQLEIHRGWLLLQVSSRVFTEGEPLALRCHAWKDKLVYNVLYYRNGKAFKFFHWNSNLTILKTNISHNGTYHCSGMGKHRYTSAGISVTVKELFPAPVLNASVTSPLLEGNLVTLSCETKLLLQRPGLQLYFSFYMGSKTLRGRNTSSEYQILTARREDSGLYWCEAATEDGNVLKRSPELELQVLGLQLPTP

| Kd [1] [nM] | Response (human C1q [2]) [nm] | Kd [3] [nM] | Response [3] [nm] | koff [3] [s⁻¹] | kon [3] [M⁻¹ s⁻¹] | binding result (human C1q [4]) | binding result [5] | binding result [6] | binding result [7] | binding result [8] | binding result [9] | binding result [10] | binding result [11] | binding result [12] | Binder |
| --- | --- | --- | --- | --- | --- | --- | --- | --- | --- | --- | --- | --- | --- | --- | --- |
| 402 | 0.0004 | 2.41 | 0.152 | 0.0002 | 82900 | no binding (tested: C1q 40 nM) | no binding (tested: 400 nM) | no binding (tested: 400 nM) | no binding (tested: 400 nM) | no binding (tested: 400 nM) | no binding (tested: 400 nM) | no binding (tested: 400 nM) | no binding (tested: 400 nM) | no binding (tested: 400 nM) | Fcmut-08 (antibody, human IgG1, kappa, L234A L235A, IgG1-mut of Fcmut-01: L234A + L235A + deletion of 329 and 330 (EU index); also called Fcmut-8) heavy: QVQLVQSGAEVKKPGSSVKVSCKASGYSFSSYNIHWVRQAPGQGLEWMGYIAPFQGDSRYNQKFKGRVTITADKSTSTAYMELSSLRSEDTAVYYCARLNRGNSLDYWGQGTLVTVSSASTKGPSVFPLAPSSKSTSGGTAALGCLVKDYFPEPVTVSWNSGALTSGVHTFPAVLQSSGLYSLSSVVTVPSSSLGTQTYICNVNHKPSNTKVDKKVEPKSCDKTHTCPPCPAPEAAGGPSVFLFPPKPKDTLMISRTPEVTCVVVDVSHEDPEVKFNWYVDGVEVHNAKTKPREEQYNSTYRVVSVLTVLHQDWLNGKEYKCKVSNKALPIEKTISKAKGQPREPQVYTLPPSREEMTKNQVSLTCLVKGFYPSDIAVEWESNGQPENNYKTTPPVLDSDGSFFLYSKLTVDKSRWQQGNVFSCSVMHEALHNHYTQKSLSLSPGK light: not shown |
| 374 | -0.0134 | 2.47 | 0.154 | 0.0002 | 80900 | – | no binding (tested: 400 nM) | no binding (tested: 400 nM) | no binding (tested: 400 nM) | no binding (tested: 400 nM) | no binding (tested: 400 nM) | no binding (tested: 400 nM) | no binding (tested: 400 nM) | no binding (tested: 400 nM) | Fcmut-07 (antibody, human IgG1, kappa, L234A L235A, IgG1-mut of Fcmut-01: L234A + L235A + deletion of 329 + G at 330 (EU index)) heavy: QVQLVQSGAEVKKPGSSVKVSCKASGYSFSSYNIHWVRQAPGQGLEWMGYIAPFQGDSRYNQKFKGRVTITADKSTSTAYMELSSLRSEDTAVYYCARLNRGNSLDYWGQGTLVTVSSASTKGPSVFPLAPSSKSTSGGTAALGCLVKDYFPEPVTVSWNSGALTSGVHTFPAVLQSSGLYSLSSVVTVPSSSLGTQTYICNVNHKPSNTKVDKKVEPKSCDKTHTCPPCPAPEAAGGPSVFLFPPKPKDTLMISRTPEVTCVVVDVSHEDPEVKFNWYVDGVEVHNAKTKPREEQYNSTYRVVSVLTVLHQDWLNGKEYKCKVSNKALGPIEKTISKAKGQPREPQVYTLPPSREEMTKNQVSLTCLVKGFYPSDIAVEWESNGQPENNYKTTPPVLDSDGSFFLYSKLTVDKSRWQQGNVFSCSVMHEALHNHYTQKSLSLSPGK light: not shown |
